Results reported in paper PMC3478262.

Molecular target: Rv0132c–Δ38 protein (Mycobacterium tuberculosis H37Rv) (UniProt P96809)
Assay: SEC

Substance: Rv0132c–Δ38 protein (from UniProt P96809 39-360) (domain or fragment)
- stoichiometry N: 2
